Target: pk3cb_mouse Pik3cb (UniProt Q8BTI9)

Ras-related C3 botulinum toxin substrate 1 (Mus musculus) (from UniProt P63001) I33D
effect of a mutation on the interaction: decreasing interaction strength
